Here are results for 1 molecule from paper PMC4840364.

The target in this experiment is glycoprotein Ibα (GPIbα) on human platelets, P07359. The experiment is described as follows: flow cytometry on cells. As to conditions: chain shown with the change, human platelets incubated 20 min, washed once, FITC-conjugated goat anti-mouse IgG, MFI of 10,000 cells, read off a plot. On the technique in general: In flow cytometry, cells or beads pass a laser one at a time.

B1: wild-type 5G6 Fab fragment (recombinant) H:T102A; H:T103A; H:T104A; H:T105A; L:D93A (protein)
chain 1: QVTLKESGPGILQPSQTLSLTCSFSGFSLSTSNMGVVWIRQPSGKGLEWLLHILWNDGKFYNPALKSRLTISKDTYNNQVFLKIANVDTADTATYYCARLFAAAASGYFDVWGAGTTVTVSS
chain 2: DIQMTQSPASLSASVGETVTITCRASGNIYNYLAWYQQKQGKSPQLLVYNAKTLADGVPSRFSGSGSGTQYSLKINSLQPEDFGSYFCQHFWATPWTFGGGTKLEIK
For the molecule B1, the response by setting is: ([mAb] about 37 nM (read from x axis), parent: est. 320) 8 a.u; ([mAb] about 110 nM (read from x axis), parent: est. 290) 10 a.u.
